± gives the uncertainty stated by the source.
B1: Unconventional myosin-Ie, residues 1051 to 1108; numbered along this chain, Q12965 (parent)
chain: PQVPQCKALYAYDAQDTDELSFNANDIIDIIKEDPSGWWTGRLRGKQGLFPNNYVTKI

Variants of: B1
Assay: abundance fitness (aPCA) (normalised: wild type 0, dead -1); higher = more abundant; growth selection in yeast, the domain comes from the species named
Conditions: Homo sapiens

Variant | abundance fitness
PQVPQCKALYAYDAQDTDELSFNANDIIDIIKEDPSRWWTGRLRGKQGLFPNNYVTKI [G37R] | -0.574 ± 0.053
PQVPQCKALYAYDAQDTDELSFNANDIIDIIKEDPSHWWTGRLRGKQGLFPNNYVTKI [G37H] | -0.883 ± 0.21
PQVPQCKALYAYDAQDTDELSFNANDIIDIIKEDPSMWWTGRLRGKQGLFPNNYVTKI [G37M] | -0.545 ± 0.12
PQVPQCKALYAYDAQDTDELSFNANDIIDIIKEDPSYWWTGRLRGKQGLFPNNYVTKI [G37Y] | -0.811 ± 0.26
PQVPQCKALYAYDAQDTDELSFNANDIIDIIKEDPSEWWTGRLRGKQGLFPNNYVTKI [G37E] | -0.481 ± 0.049
PQVPQCKALYAYDAQDTDELSFNANDIIDIIKEDPSLWWTGRLRGKQGLFPNNYVTKI [G37L] | -0.617 ± 0.095
PQVPQCKALYAYDAQDTDELSFNANDIIDIIKEDPSFWWTGRLRGKQGLFPNNYVTKI [G37F] | -0.797 ± 0.31
PQVPQCKALYAYDAQDTDELSFNANDIIDIIKEDPSGLWTGRLRGKQGLFPNNYVTKI [W38L] | -0.211 ± 0.3
PQVPQCKALYAYDAQDTDELSFNANDIIDIIKEDPSGWWTLRLRGKQGLFPNNYVTKI [G41L] | -0.474 ± 0.18
PQVPQCKALYAYDAQDTDELSFNANDIIDIIKEDPSGWWTARLRGKQGLFPNNYVTKI [G41A] | -0.8 ± 0.045
PQVPQCKALYAYDAQDTDELSFNANDIIDIIKEDPSGWWTNRLRGKQGLFPNNYVTKI [G41N] | -0.87 ± 0.14
PQVPQCKALYAYDAQDTDELSFNANDIIDIIKEDPSGWWTKRLRGKQGLFPNNYVTKI [G41K] | -1.03 ± 0.28
PQVPQCKALYAYDAQDTDELSFNANDIIDIIKEDPSGWWTHRLRGKQGLFPNNYVTKI [G41H] | -0.83 ± 0.28
PQVPQCKALYAYDAQDTDELSFNANDIIDIIKEDPSGWWTFRLRGKQGLFPNNYVTKI [G41F] | -0.756 ± 0.37
PQVPQCKALYAYDAQDTDELSFNANDIIDIIKEDPSGWWTDRLRGKQGLFPNNYVTKI [G41D] | -0.899 ± 0.11
PQVPQCKALYAYDAQDTDELSFNANDIIDIIKEDPSGWWTPRLRGKQGLFPNNYVTKI [G41P] | -0.826 ± 0.18
PQVPQCKALYAYDAQDTDELSFNANDIIDIIKEDPSGWWTCRLRGKQGLFPNNYVTKI [G41C] | -0.813 ± 0.059
PQVPQCKALYAYDAQDTDELSFNANDIIDIIKEDPSGWWMGRLRGKQGLFPNNYVTKI [T40M] | 0.052 ± 0.066
PQVPQCKALYAYDAQDTDELSFNANDIIDIIKEDPSGWWLGRLRGKQGLFPNNYVTKI [T40L] | -0.058 ± 0.041
PQVPQCKALYAYDAQDTDELSFNANDIIDIIKEDPSGWWRGRLRGKQGLFPNNYVTKI [T40R] | -0.123 ± 0.045
PQVPQCKALYAYDAQDTDELSFNANDIIDIIKEDPSGWWPGRLRGKQGLFPNNYVTKI [T40P] | -1.01 ± 0.071
PQVPQCKALYAYDAQDTDELSFNANDIIDIIKEDPSGWWHGRLRGKQGLFPNNYVTKI [T40H] | -0.284 ± 0.16
PQVPQCKALYAYDAQDTDELSFNANDIIDIIKEDPSGWWSGRLRGKQGLFPNNYVTKI [T40S] | -0.082 ± 0.05

Variant | abundance fitness
PQVPQCKALYAYDAQDTDELSFNANDIIDIIKEDPSGWWNGRLRGKQGLFPNNYVTKI [T40N] | -0.382 ± 0.11
PQVPQCKALYAYDAQDTDELSFNANDIIDIIKEDPSGWWEGRLRGKQGLFPNNYVTKI [T40E] | -0.203 ± 0.092
PQVPQCKALYAYDAQDTDELSFNANDIIDIIKEDPSGWWIGRLRGKQGLFPNNYVTKI [T40I] | -0.059 ± 0.054
PQVPQCKALYAYDAQDTDELSFNANDIIDIIKEDPSGWWGGRLRGKQGLFPNNYVTKI [T40G] | -0.647 ± 0.086
PQVPQCKALYAYDAQDTDELSFNANDIIDIIKEDPSGWWFGRLRGKQGLFPNNYVTKI [T40F] | -0.479 ± 0.18
PQVPQCKALYAYDAQDTDELSFNANDIIDIIKEDPSGWWYGRLRGKQGLFPNNYVTKI [T40Y] | -0.07 ± 0.041
PQVPQCKALYAYDAQDTDELSFNANDIIDIIKEDPSGWWAGRLRGKQGLFPNNYVTKI [T40A] | -0.175 ± 0.068
PQVPQCKALYAYDAQDTDELSFNANDIIDIIKEDPSGWWQGRLRGKQGLFPNNYVTKI [T40Q] | -0.075 ± 0.066
PQVPQCKALYAYDAQDTDELSFNANDIIDIIKEDPSGWWWGRLRGKQGLFPNNYVTKI [T40W] | -0.062 ± 0.051
PQVPQCKALYAYDAQDTDELSFNANDIIDIIKEDPSGWWVGRLRGKQGLFPNNYVTKI [T40V] | 0.125 ± 0.075
PQVPQCKALYAYDAQDTDELSFNANDIIDIIKEDPNGWWTGRLRGKQGLFPNNYVTKI [S36N] | -0.381 ± 0.12
PQVPQCKALYAYDAQDTDELSFNANDIIDIIKEDPKGWWTGRLRGKQGLFPNNYVTKI [S36K] | 0.147 ± 0.071
PQVPQCKALYAYDAQDTDELSFNANDIIDIIKEDPMGWWTGRLRGKQGLFPNNYVTKI [S36M] | -0.284 ± 0.19
PQVPQCKALYAYDAQDTDELSFNANDIIDIIKEDPEGWWTGRLRGKQGLFPNNYVTKI [S36E] | -0.279 ± 0.065
PQVPQCKALYAYDAQDTDELSFNANDIIDIIKEDPYGWWTGRLRGKQGLFPNNYVTKI [S36Y] | -0.349 ± 0.093
PQVPQCKALYAYDAQDTDELSFNANDIIDIIKEDPQGWWTGRLRGKQGLFPNNYVTKI [S36Q] | -0.024 ± 0.063
PQVPQCKALYAYDAQDTDELSFNANDIIDIIKEDPPGWWTGRLRGKQGLFPNNYVTKI [S36P] | -0.883 ± 0.18
PQVPQCKALYAYDAQDTDELSFNANDIIDIIKEDPRGWWTGRLRGKQGLFPNNYVTKI [S36R] | -0.073 ± 0.033
PQVPQCKALYAYDAQDTDELSFNANDIIDIIKEDPTGWWTGRLRGKQGLFPNNYVTKI [S36T] | -0.085 ± 0.043
PQVPQCKALYAYDAQDTDELSFNANDIIDIIKEDPFGWWTGRLRGKQGLFPNNYVTKI [S36F] | -0.279 ± 0.064
PQVPQCKALYAYDAQDTDELSFNANDIIDIIKEDPLGWWTGRLRGKQGLFPNNYVTKI [S36L] | -0.341 ± 0.05
PQVPQCKALYAYDAQDTDELSFNANDIIDIIKEDPGGWWTGRLRGKQGLFPNNYVTKI [S36G] | -0.031 ± 0.047
PQVPQCKALYAYDAQDTDELSFNANDIIDIIKEDPDGWWTGRLRGKQGLFPNNYVTKI [S36D] | -0.033 ± 0.039

— the Human Domainome abundance scans (Beltran et al. 2025)
